# Measured values from PMC4447949, “Structures of the Ets Protein DNA-binding Domains of Transcription Factors Etv1, Etv4, Etv5, and Fev” (The Journal of Biological Chemistry, 2015).
# T1: Fev Ets domain (human, UniProt Q99581 42-141)
# T1 sequence: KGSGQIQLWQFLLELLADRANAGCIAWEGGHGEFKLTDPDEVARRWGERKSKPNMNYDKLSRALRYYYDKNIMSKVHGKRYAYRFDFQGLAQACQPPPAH
# Tests used:
# [1] = molecular target: the molecule itself; test: crystal structure; DNA-free crystals; dimer seen between adjacent molecules in the crystal, with an intermolecular disulfide bond; protein purified with TCEP
# [2] = molecular target: the molecule itself; test: SEC; protein expressed in Rosetta-gami 2 E. coli and purified under nonreducing conditions (no TCEP); Superdex S75 or 200, 20 mM HEPES pH 7.5, 500 mM NaCl, 5% glycerol; dimer checked by SDS-PAGE with or without DTT and by mass spectrometry
# [3] = molecular target: T1, Fev Ets domain; test: X-ray crystallography; text cites 2YPR for the complex, but Fig. 1 uses 2YPR as Fev and Fig. 7 gives 3ZP5 as Fev-dsDNA; EMSA: 50 mM Tris-HCl pH 7.5, 50 mM NaCl, 2 mM MgCl2, 0.01% Tween 20, 5% glycerol, 1 h at room temperature; proteins reduced with 10 mM TCEP unless stated; 10% native PAGE; conditions: protein: recombinant; tags: N-terminal His6 removed by TEV (leaves SM); chain copies: 2; blunt
# [4] = molecular target: Etv1 Y329S-P427S (human, UniProt P50549 326-429, Y329S;P427S); test: X-ray crystallography; 2.9 A; EMSA: 50 mM Tris-HCl pH 7.5, 50 mM NaCl, 2 mM MgCl2, 0.01% Tween 20, 5% glycerol, 1 h at room temperature; proteins reduced with 10 mM TCEP unless stated; 10% native PAGE; conditions: protein: recombinant; tags: N-terminal His6 removed by TEV (leaves SM); blunt
# [5] = molecular target: Etv4 Ets domain (human, UniProt P43268 338-470); test: X-ray crystallography; 2.8 A; 8 complexes per asymmetric unit; EMSA: 50 mM Tris-HCl pH 7.5, 50 mM NaCl, 2 mM MgCl2, 0.01% Tween 20, 5% glycerol, 1 h at room temperature; proteins reduced with 10 mM TCEP unless stated; 10% native PAGE; conditions: protein: recombinant; tags: N-terminal His6 removed by TEV (leaves SM); 3' overhang 1 nt on each strand
# [6] = molecular target: Etv5 Ets domain (human, UniProt P41161 365-462); test: X-ray crystallography; 1.95 A; Ca2+ bound near alpha4; EMSA: 50 mM Tris-HCl pH 7.5, 50 mM NaCl, 2 mM MgCl2, 0.01% Tween 20, 5% glycerol, 1 h at room temperature; proteins reduced with 10 mM TCEP unless stated; 10% native PAGE; conditions: protein: recombinant; tags: N-terminal His6 removed by TEV (leaves SM); 3' overhang 1 nt on each strand
binder,measurement,setting,value
"Etv1^Y329S-P427S Ets domain (amino acids 326-429) (domain or fragment, human, UniProt P50549 326-429, looked up, Etv1 (Ets translocation variant 1, ER81), Ets domain construct, amino acids 326-429, with two primer-incorporated mutations; A selenomethionine form was used for phasing of the DNA complex; also called PCR mutant Ets domain; ER81; source: E. coli BL21 (DE3) Rosetta-R3, purified (Ni-IDA, TEV cleavage, SEC); not shown: His6, N-terminal, cleaved) GPTSQRRGSLQLWQFLVALLDDPSNSHFIAWTGRGMEFKLIEPEEVARRWGIQKNRPAMNYDKLSRSLRYYYEKGIMQKVAGERYVYKFVCDPEALFSMAFSDN",binding result,[1],binds
"Etv5 Ets domain (amino acids 365-462) (domain or fragment, human, UniProt P41161 365-462, looked up, Etv5 (ERM), Ets domain construct, amino acids 365-462; TEV cleavage leaves SM before the insert; The limits are those told for the crystallisation construct; also called ERM; Etv5 WT; source: E. coli BL21 (DE3) Rosetta-R3, purified with TCEP (Ni-IDA, TEV cleavage, SEC); E. coli Rosetta-gami 2, purified without TCEP; not shown: His6, N-terminal, cleaved) RGSLQLWQFLVTLLDDPANAHFIAWTGRGMEFKLIEPEEVARRWGIQKNRPAMNYDKLSRSLRYYYEKGIMQKVAGERYVYKFVCDPDALFSMAFPDN",stoichiometry N,[2],2
"Fev Ets domain (amino acids 42-141) (domain or fragment, human, UniProt Q99581 42-141, looked up, Fev (Fifth Ewing Variant, PET-1), Ets domain construct, amino acids 42-141; TEV cleavage leaves SM before the insert; also called Fifth Ewing Variant; PET-1; source: E. coli BL21 (DE3) Rosetta-R3, purified (Ni-IDA, TEV cleavage, SEC); not shown: His6, N-terminal, cleaved) KGSGQIQLWQFLLELLADRANAGCIAWEGGHGEFKLTDPDEVARRWGERKSKPNMNYDKLSRALRYYYDKNIMSKVHGKRYAYRFDFQGLAQACQPPPAH",binding result,[1],binds
"Etv1 wild-type Ets domain (amino acids 326-429) (domain or fragment, human, UniProt P50549 326-429, looked up, Same limits as the crystallised Y329S-P427S construct (PDB 4AVP, 4BNC); TEV cleavage leaves SM before the insert; From Rosetta-gami 2 under nonreducing conditions it is a disulfide-linked dimer; also called WT; WT dimer; source: E. coli BL21 (DE3) Rosetta-R3, purified with TCEP (Ni-IDA, TEV cleavage, SEC); E. coli Rosetta-gami 2, purified without TCEP; not shown: His6, N-terminal, cleaved) GPTYQRRGSLQLWQFLVALLDDPSNSHFIAWTGRGMEFKLIEPEEVARRWGIQKNRPAMNYDKLSRSLRYYYEKGIMQKVAGERYVYKFVCDPEALFSMAFPDN",stoichiometry N,[2],2
"Etv4 Ets domain (amino acids 338-470) (domain or fragment, human, UniProt P43268 338-470, looked up, Etv4 (PEA3), Ets domain construct, amino acids 338-470; TEV cleavage leaves SM before the insert; The limits are those told for the crystallised construct; also called PEA3; Etv4 WT; source: E. coli BL21 (DE3) Rosetta-R3, purified with TCEP (Ni-IDA, TEV cleavage, SEC); E. coli Rosetta-gami 2, purified without TCEP; not shown: His6, N-terminal, cleaved) RGALQLWQFLVALLDDPTNAHFIAWTGRGMEFKLIEPEEVARLWGIQKNRPAMNYDKLSRSLRYYYEKGIMQKVAGERYVYKFVCEPEALFSLAFPDNQRPALKAEFDRPVSEEDTVPLSHLDESPAYLPELA",stoichiometry N,[2],2
10-bp crystallization duplex (dsDNA) DNA 1: ACCGGAAGTG DNA 2: CACTTCCGGT,binding result,[3],binds
same,binding result,[4],binds
9-bp crystallization duplex with overhangs (dsDNA) DNA 1: ACCGGAAGTG DNA 2: ACTTCCGGTC,binding result,[5],binds
same,binding result,[6],binds
